Measured values from patent publication US20210032347A1 (JIANGSU HANSOH PHARMACEUTICAL GROUP, published 2021).

T1: Human B7-H4 with HisFlag tag (huB7-H4-his) (human, UniProt Q7Z7D3 25-258)
T1 construct: also called HuB7-H4 His protein; huB7-H4-HF
T1 sequence: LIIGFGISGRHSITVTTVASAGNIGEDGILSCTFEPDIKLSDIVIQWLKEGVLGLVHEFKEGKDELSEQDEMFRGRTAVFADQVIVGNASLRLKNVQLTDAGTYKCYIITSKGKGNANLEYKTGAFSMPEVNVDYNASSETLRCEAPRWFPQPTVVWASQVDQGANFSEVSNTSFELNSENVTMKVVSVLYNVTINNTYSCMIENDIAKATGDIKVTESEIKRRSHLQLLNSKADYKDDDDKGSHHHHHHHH


Assays:
[1] = molecular target: T1, Human B7-H4 with HisFlag tag …; experiment: indirect ELISA, plate coated with HuB7-H4 His
Method: The plate was washed with PBST (PBS comprising 0.05% Tween-20, pH 7.4) four times, and then 150 μl/well of 3% bovine serum albumin (BSA) blocking solution diluted in PBST was added, and incubated at room temperature for 1 hour for blocking. After the blocking was finished, the blocking solution was discarded and the plate was washed 4 times with PBST buffer.
The antibodies to be tested were diluted with PBST comprising 3% BSA at a gradient of 10-fold dilution, starting from 1 μM with a total of 10 doses. The dilutions were added into the plate at 100 μl/well, and incubated at room temperature for 1 hour. After the incubation was finished, the plate was washed 4 times with PBST, 100 μl/well of HRP-labeled goat anti-human secondary antibody (Abeam, cat #ab97225) diluted in PBST comprising 3% BSA was added and incubated at room temperature for 1 hour. The plate was washed 4 times with PBST, 100 μl/well TMB chromogenic substrate (Cell Signaling Technology, cat #7004S) was added and incubated at room temperature in darkness for 1 minute, and 100 μl/well of Stop Solution (Cell Signaling Technology, cat #7002S) was added to terminate the reaction. The absorbance was read at 450 nm using a microplate reader (BioTek, model Synergy H1), and the data was analyzed.

[2] = molecular target: T1, Human B7-H4 with HisFlag tag …; experiment: SPR Biacore T200, antibody coupled to CM5 chip, series of huB7-H4-his concentrations, 1:1 model
Method: (§1) b). A series of concentrations of human huB7-H4-his protein diluted by the same buffer were respectively loaded at the flow rate of 10 μL/min and the chip was regenerated with the regeneration reagent provided in the kit. Antigen-antibody binding kinetics were recorded for 3 minutes and dissociation kinetics were recorded for 10 minutes. The resulting data were analyzed by GE's BIAevaluation Software using 1:1 (Langmuir) binding model.

[3] = molecular target: T1, Human B7-H4 with HisFlag tag …; experiment: SPR Biacore T200, antibody coupled to CM5 chip, 50 nM huB7-H4-his in flow, 1:1 model
Method: as §1, with “a). 50 nM human” for “b). A series of concentrations of human”, “protein (Sino Biological #10738-H08H)” for “protein”, “buffer was” for “buffer were respectively”, “at a” for “at the”, “10 μL/min,” for “10 μL/min”

| EC50 [1] | Kd [2] | koff [2] | kon [2] | koff [3] | Binder |
| --- | --- | --- | --- | --- | --- |
| 0.063 nM | 0.14 nM | 9.41e-05 s⁻¹ | 674000 M⁻¹ s⁻¹ | – | chimeric antibody M1 (antibody, V domains shown, also called ch-M1) VH: EIQLQQSGPELVMPGASVKVSCTASGYPFTTYNMYWVKQSHGKSLEWIAYIDPYNGGTSYNQKFKGKATLTVDKSSSTAYMHLNSLTSEDSAVYYCARSGFYDGYYAWYFDVWGAGTTVTVSS VL: DVVMTQTPLSLPVSLGDQASISCRSSQSLVHSGGNTYLHWYLQKPGQSPKLLIYKVSNRFSGVPDRFSGSGSGTDFTLKISRVEAEDLGVYFCSQSTHVPLTFGAGTKLELK |
| – | – | – | – | 3.98e-05 s⁻¹ | M1 (listed as murine antibody) (antibody, V domains shown) VH: EIQLQQSGPELVMPGASVKVSCTASGYPFTTYNMYWVKQSHGKSLEWIAYIDPYNGGTSYNQKFKGKATLTVDKSSSTAYMHLNSLTSEDSAVYYCARSGFYDGYYAWYFDVWGAGTTVTVSS VL: DVVMTQTPLSLPVSLGDQASISCRSSQSLVHSGGNTYLHWYLQKPGQSPKLLIYKVSNRFSGVPDRFSGSGSGTDFTLKISRVEAEDLGVYFCSQSTHVPLTFGAGTKLELK |
| 0.071 nM | – | – | – | – | chimeric antibody 2A10 (antibody, human IgG1, V domains shown) VH: EVQLVESGGGFVKPGGSLKLSCAASGFTFSTFGMSWVRQTPDKRLEWVAGISPGGSYTYYPDTVKGRFTISRDNARNTLYLQMSSLRSEDSAMYYCTRGRSVWGTGTTVTVSS VL: DILMTQSPSSMSVSLGDTVSITCHASQDISSNIGWLQQKPGKSFKGLIYHGTTLEDGIPSRFSGSGSGADYSLTISSLESEDFADYYCVQSAQFPWTFGGGTKLEIK |
| 0.081 nM | – | – | – | – | chimeric antibody 2G6 (antibody, human IgG1, V domains shown) VH: EVQLVESGGGLVKPGGSLKLSCAASGFTFSRYGMSWVRQTPEKRLEWVAGINGGGSYTYYLDTVKGRFTISRDNSRNTLYLQMSSLRSEDTAMYYCVSQGSNYYFDYWGQGTTLTVSS VL: DIRMTQSPSSMSVSLGDTVSITCHASQGISSNIGWLQQKPGKSFKALIYHGTNLEDGVPSRFSGSGSGADYSLTISSLESEDFADYYCVQYAQFPYTFGGGTKLEIK |
| 0.056 nM | 2.5 nM | 0.00259 s⁻¹ | 1.04e+06 M⁻¹ s⁻¹ | – | chimeric antibody 2F4 (antibody, human IgG1, V domains shown, also called ch-2F4) VH: EVQLVESGGGLVKPGGSLKLSCAASGLTFSRYAMSWVRQTPEKRLEWVAGISSGGSYTYYSDTVKGRFTISRDNVRNTLYLQMSSLRSEDTAMYYCGREYGRDYWGQGTSVTVSS VL: DILMTQSPSSMSVSLGDTVSITCHASQGINSNIGWLQQKPGKSFKGLIYHGTNLEDGVPSRFSGSGSGTDYSLTISSLESEDFADYYCVQYAQFPRTFGGGTTLEIK |
| – | – | – | – | 0.000331 s⁻¹ | murine mAb 2A10 (antibody, V domains shown, Murine antibody from hybridoma) VH: EVQLVESGGGFVKPGGSLKLSCAASGFTFSTFGMSWVRQTPDKRLEWVAGISPGGSYTYYPDTVKGRFTISRDNARNTLYLQMSSLRSEDSAMYYCTRGRSVWGTGTTVTVSS VL: DILMTQSPSSMSVSLGDTVSITCHASQDISSNIGWLQQKPGKSFKGLIYHGTTLEDGIPSRFSGSGSGADYSLTISSLESEDFADYYCVQSAQFPWTFGGGTKLEIK |
| – | – | – | – | 0.000293 s⁻¹ | murine mAb 1E4 (antibody, V domains shown, Murine antibody from hybridoma) VH: EVQLVESGGGLVKPGGSLKLSCAASGFTFSRYAMSWVRQTPEKRLEWVAGISSGGSYTYYPDTLKGRFTVSRDNARNTLYLQMSSLRSEDTAKYFCASQGSNHYFDYWGQGTTLTVSS VL: DTLMTQSPSSMSVSLGDTVSITCHASQGIHNNIGWLQQKPGKSFKALIYHGTNLEDGVPSRFSGSGSGADYSLIISSLESEDFADYYCVQYAQFPYTFGGGTKLEIK |
| – | – | – | – | 8.91e-05 s⁻¹ | murine mAb 2G6 (antibody, V domains shown, Murine antibody from hybridoma) VH: EVQLVESGGGLVKPGGSLKLSCAASGFTFSRYGMSWVRQTPEKRLEWVAGINGGGSYTYYLDTVKGRFTISRDNSRNTLYLQMSSLRSEDTAMYYCVSQGSNYYFDYWGQGTTLTVSS VL: DIRMTQSPSSMSVSLGDTVSITCHASQGISSNIGWLQQKPGKSFKALIYHGTNLEDGVPSRFSGSGSGADYSLTISSLESEDFADYYCVQYAQFPYTFGGGTKLEIK |
| – | – | – | – | 0.00166 s⁻¹ | murine mAb 2F4 (antibody, V domains shown, Murine antibody from hybridoma) VH: EVQLVESGGGLVKPGGSLKLSCAASGLTFSRYAMSWVRQTPEKRLEWVAGISSGGSYTYYSDTVKGRFTISRDNVRNTLYLQMSSLRSEDTAMYYCGREYGRDYWGQGTSVTVSS VL: DILMTQSPSSMSVSLGDTVSITCHASQGINSNIGWLQQKPGKSFKGLIYHGTNLEDGVPSRFSGSGSGTDYSLTISSLESEDFADYYCVQYAQFPRTFGGGTTLEIK |
| 0.067 nM | 0.119 nM | 0.000114 s⁻¹ | 1.13e+06 M⁻¹ s⁻¹ | – | chimeric antibody 2F8 (antibody, human IgG1, V domains shown, also called ch-2F8) VH: QVQLQQPGSVLVRPGASVKLSCKASGYTFTNSWMNWAKLRPGQGLEWIGGIYPNSGNIEYNEKFKGKATLTVDTSSSTAYMDLTSLTSEDSAVYYCARDSRFSYWGQGTLVTVSA VL: DIVMTQSHKFMSTSVGDRVSITCKASQDVRTAVAWYQQKPGQSPKLLISSTSYRYTGVPDRFTGSGSGTDFTFIISSVQAEDLAVYYCQQHYSTPLTFGAGTKLELK |
| 0.068 nM | – | – | – | – | chimeric antibody 1C9 (antibody, human IgG1, V domains shown) VH: QVQLQQPGSVLVRPGASVKLSCKASGDTFTTYWMNWVKQRPGQGLEWIGGIYLNSGSSEYNEKFKGKATLSVDTSSSTAYMDLSSLTSEDSAVYYCARDSRFSYWGQGTLVTVSA VL: DIVMTQSHKFLSTSVGDRVSITCKASQDVSTAVAWYQQKPGQSPELLISSASYRYTGVPDRFTGSGSGTDFTFTISSVQAEDLAVYYCQQHYNTPLTFGAGTQLELK |
| – | – | – | – | 5.97e-05 s⁻¹ | murine mAb 2E4 (antibody, V domains shown, Murine antibody from hybridoma) VH: QVQLQQPGSVLVRPGTSVKLSCKASGYTFTSSWMNWVKQRPGQGLEWIGGIYPNRGTTEYNEKFKGKATLTVDTSSSTAFMDLNRLTSEDSAVYYCARDSRFADWGQGTLVTVSA VL: DIMLTQSHKFMSTSVGDRVSITCKASQDVSAAVAWYQQKPGQSPKLLISSASYRYTGVPDRFTGSGSGTDFTFTISSVQAEDLAVYYCQQHYNTPLTFGAGTKLELK |
| – | – | – | – | 6.87e-05 s⁻¹ | murine mAb 2F8 (antibody, V domains shown, Murine antibody from hybridoma) VH: QVQLQQPGSVLVRPGASVKLSCKASGYTFTNSWMNWAKLRPGQGLEWIGGIYPNSGNIEYNEKFKGKATLTVDTSSSTAYMDLTSLTSEDSAVYYCARDSRFSYWGQGTLVTVSA VL: DIVMTQSHKFMSTSVGDRVSITCKASQDVRTAVAWYQQKPGQSPKLLISSTSYRYTGVPDRFTGSGSGTDFTFIISSVQAEDLAVYYCQQHYSTPLTFGAGTKLELK |
| 0.17 nM | 68.8 nM | 0.00304 s⁻¹ | 44200 M⁻¹ s⁻¹ | – | chimeric antibody 2F7 (antibody, human IgG1, V domains shown, also called ch-2F7) VH: EVQLVESGGGLVQPGGSLKLSCAASGFTFSNYYMSWVRQTPEKRLEWVAYVSSGGGSTYYSDSVKGRFTISRDNAKNTLYLQMSSLKPEDTAMYYCTRESYSQGNYFDYWGQGTTLTVSS VL: DIVMTQSPATLSVTPGDRVSLSCRASQSISDYLHWYQQKSHESPRLLIKFASQSISGIPSRFSGSGSGSDFTLSINSVEPEDVGVYYCQNGHSFSLTFGAGTKLELK |
| – | – | – | – | 0.00253 s⁻¹ | murine mAb 2F7 (antibody, V domains shown, Murine antibody from hybridoma) VH: EVQLVESGGGLVQPGGSLKLSCAASGFTFSNYYMSWVRQTPEKRLEWVAYVSSGGGSTYYSDSVKGRFTISRDNAKNTLYLQMSSLKPEDTAMYYCTRESYSQGNYFDYWGQGTTLTVSS VL: DIVMTQSPATLSVTPGDRVSLSCRASQSISDYLHWYQQKSHESPRLLIKFASQSISGIPSRFSGSGSGSDFTLSINSVEPEDVGVYYCQNGHSFSLTFGAGTKLELK |
